Measurements reported in the nanobody polyreactivity screen of Harvey et al. (2022).

Experiment: yeast display, Sf9 membrane polyspecificity reagent, FACS + sequencing; frameworks hold sequencing errors
How it was run: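 Using colony PCR, genes from sorted yeast display clones were amplified, then sequenced on MiSeq at 2 × 250 and filtered by CDR length. The clones had been stained with 10% biotinylated, detergent-solubilized Sf9 membrane reagent for 1 hour at 4 °C and sorted by FACS into low and high (top ~1%) gates on anti-HA and streptavidin fluorescence. Polyreactivity labels come from the gate of origin.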

Sequence | polyreactivity (PSR sort gate)
QEQMQEGGGGLVQAGGSLRLICASSGYNFNGDWMGWNRQAPGKERELVATINYGATTNYADSVKGRFTISRDNAKNTVYLQMNSLKPEDTAVYYCAVGGHGAQLYVYWGQGTQVTVSN | high polyreactivity
QVQLVESGGGLVQAGGSLRLSCAASGYTFIHNAMGWYRQAPGKERELVAAINRSGGITNYADSVKGRFTISRDNAKNTVYLQMNSLKPEDTAVYYCNADVDPLPPRYLHREVLKEYNYWGQGTQVTVSS | low polyreactivity
QVQLVESGGGLVQAGGSLRLSCAASGSTIYVYAMGWYRHPPGKERELVAAISTAGGRTSYADSVKGRFTISRDNAQNTVYLQMNSLKPEDTAVYYCAARSTLYRSIRYDYWGQGTQVTVSS | high polyreactivity
QVQLVESGGVLVQAGGSLPLSCAASGSIFGSYAMGWSRQAPGKERELVAAIRWSGGSTRYADSVKGRFTISRDIAKNRVYLHMNSLKPEDTAVYYCAAVWRYLGYTSMDYWGQGTQVTVSS | low polyreactivity
QVQLVESGGGLVQAGGSLRLSCPASGTLTVNTMGWYRQAPGKERELVAAISTGDTTTYADSVKGRFTISRDNAKNTVYVQMNSLKPEDTAVYYCNVDIGVYAYESDYWGQGSQVTVSS | low polyreactivity
QVQLVESGGGLVQAGGSLRLSCAASGSTFAKYAMGWYRQAPGKERELVASIRLSGGSTYYADSVKGRFTISRDNAKNTVYLQMNSLNPEDTAVYYCNKQFATFYYGFDYYYWGQGTQVTVSS | low polyreactivity
QVQLVESCGGIVQAGGSHRLSCAASGSIFAWYAMGWYRQAPGKERELVAAITYTGGRTYYADSVKGRFTISRDIAKYTVYLQMISLNPEDTAVFYCAKDGPATVRRGYDYWGQGTQVTVSS | high polyreactivity
QVQLVESGGGLVQAGGSLRLSCAASGRILYWYTMGWYRQAPGKERELVAAITDSVGRTYYADSVKGRFTISRDNAKNTVYLQMNSLKPEDTAVYYCNADPYAQQPYSYYYGYDYWGQGTQVTVSS | low polyreactivity
QVQLVESGGGLVQAGGSLRLSCAASGFIFDDNAMGRYRQAPGKERELVAAITSGGGSTYYADSVKGRFTISRDNAKNTVYLQMNSLKPEDNAVYYCNAVPSQHVEFDYWGQGTQVTVSS | low polyreactivity
QVQLVESGGGLVQAGGSLRLSCAASGFIFSYYAMGWYRQAPGKEWELVAAISQNVAGTYYADSVKGRFTISRDNAKNTVYLQMNSLKPEDTAVYYCNARPYSGKYYYWGQGTQVTVSS | high polyreactivity
QVQLVESGGGLVQAGGSLRLSCAASGSTFAWYTMGWYRQAPGKERELVARISGSVGSTYYADSVKGRFTISRDNAKNTVYLQMNSLKPEDTAVYYCAAVYDEDQYDYWGQGTQVTVSS | low polyreactivity
QVQLQESGGGLVQAGGSLRLSCAASGYISTFSSEMGWYRQAPGKERELVASIAPGCTTSYADSVKGRFTISRDNAKNTVYLQMNSLKPEDTAVYYCAVDFTVPASFGYWGQGTQVTVSS | high polyreactivity
QVQLVESGGGLVQAGGSLRLSCAASGSILLYYAMGGSRPAPGKERQLVAAITCSGGSTYYADSVKGRFTISRDNAKNTDYLQMNSQKPEDTAVYYCNAVTDRAGSDYDSWGQGTQVTVSS | low polyreactivity
QVQLVESGGGLVQAGGSLRLSCAASGIIFSLYAMGWYRQAPGKERELVAAISASDGSTYYAVSVKGRFTISRDNAKNTVYLQMNSLKPEDTAVYYCAADSRPTQEYDYWGQGTQVTVSS | low polyreactivity
QVQLVESGGGLVQAGGSLRLSCDASGRTSRWNAMGCYRQAPGKERELVAAISSGSSTTYADSVKGRFTISRDNAKNTVYLQMNSLKPEATAVYYCNAKSGSRFVYRRYYTYNSWGQGTQVTVSS | high polyreactivity
QVQLVESGGGLVQAGGSLRLSCAASGSTVDFNAMGWYRQAPGKERELVAGISRDGGSTYYADSVKGRFTISRDYAKNTVYLEMNSLKPEDTAVYYCAVEAWSVPPYDYWGQGTQVTVSS | low polyreactivity
QVQLVESGGGLVQAGGSLRLSSAASGLTFESYAIGWYRQAPWKERELVAAISFSCGSTNYADAVKGRFTISRDNAKNTVYLQLNSLKPEDTAVYYCAAEYGSPRGTGYDSWGQGTQVTVSS | high polyreactivity
QVQLGESGGGLVQSGGSLRLSCAASGRIFDLNAMGWYRPAPGKERELVAAISYSDGSTYYADSVKGRFTISRDNEKNTVYLQMNSLKTEDTAVYYCAADFFDRTYITWYEYWGQGTQVTVSS | high polyreactivity
QVQLVESVGGLVQAGGSLRLSCAASGYIFKYYAMGWYRQAPGKERELVAAISRSGGSTYYADSVKGRFTISRDNAKNTVYLQMNSLKPEDTAVYYCNAAAYVWKSKQRLYVITYDYWGQGTQVTVSW | high polyreactivity
QVQLVESGGGLVQAGGSLRLTCAASGRTFEQNAMGWNRPAPGKERELVASITSVGSTDYADSVKGRFTISRDNAKNTVYLQMNSLKPEDTAVYYCAKTLGSQNYDFDYWGQGTQVTVSS | low polyreactivity
QVQLVESGGGLVQAGGSLRLSCAASGRIIYAYAMGWYRQTPGKERELVAAISTRGGTTYYADSVKGRFTISRDNAKNTVYLQMNSLKPEDTAVYYCNALRVSRRVGYDSWGKGTQVTVSS | high polyreactivity
QVQLVESGGGLVQAGGSLRLSCAASGFIFGSYTMGWYRQAPGKERELVAAISSSVGRTYYADSVKGRFTISRDNAKNTVYLQMNSLKPEDTAVYYCAARRHGRVDYSQGSRESYYWGQGTQVTVSS | high polyreactivity

Sequence | polyreactivity (PSR sort gate)
QVQLVESGGGLVQAGGSLRLSCAASGFIFVYNVMGWYRQAPGKERELVAAITSGGSTNYADSVKGRFTISRDNAKNTVFLKMNSLKPEDTAVYYCNADIYPDWIYLLYGYWGQGTQVTVSS | low polyreactivity
QVQLVESGGGLVQAGGSLRLSCAASGRIFAGYAMGWSRQAPGKERELVASIRSSGSTYYADSVKGRFTISRDNAKNTVYLQMNSLKPEDTAVYYCATTGRRWYYPYHYWGQGTQVTVSS | high polyreactivity
QVQLVESGGGLVQAGGSLRLSCAASGRIFGRNAMGWYRQAPGKERELVAAISSSGGTYYADSVKGRFTISRDNAKNTVYLQMNSLKPEDTAVYYCTARVRTQQRWVDYWGQGTQVTVSS | high polyreactivity
QVQLVESGGGLVQAGGSLRLSCAASGFTFPSNGMGWYRQAPGKERELVAVIDWSDDSTYYADSVKGRFTISRDNAKNTVYLQMNSLKPEDTAVYYCNARHYLYHGYIVPKYSYGYDYWGQGTQVTVSS | low polyreactivity
QVQLVESGGGLVQAGGSLRLSCAASGRILSYYAMGWYRQAPGKERELVATISASGGSTFYADSVKGRFTISRDNAKNTVYLQMNSLKPEDTAVYYCNAYWGRRVQRDYWGQGTQVTVSS | high polyreactivity
QVQLVESGGGLVQAGGSLRISCAASGRTFGANAMGWYRQAPGKERELVASISRSGGTTYYADSVKGRFTISRDNAKNTVYLQMNSLKPEDTAVYYCAAQYVRYGHYYWGQGTQVTVSS | high polyreactivity
QVQLVESGGGLVQAGGSLRLSCAASGRTFQFYAMGWYRQAPGKERELVAAISSGGSTNYADSVKGRFTISRDNAKNTVYLEMNSLKPEDSAVYYCAKRPWYHADWWDDHWGQGTQVTVSS | high polyreactivity
QVQLVESGGGLVQAGGSLRLSCASSGRTFFPYAKGWYRQAPGKEREFVAAITKTDDSTYYADSVKGRFTISRDNAKNTVYLQMNSLKPEDTAVYYCNAGDTQIRFYYWGQGTQVTVSS | low polyreactivity
QVQLVESGGGLVQAGGSLRLSCAASGRIFYPYAMGWYRQAPGKERELVAAISWNGGRTYYADSVKGRFTISRDNAKNTVYLQMNSLKPEDTAVYYCNAGGYSRVTQRFFHKYDYWGQGTQVTVSS | high polyreactivity
QVQLVESGGGLVQAGGSLRLSCAASGLTFQSNAMGWYRQAPGKEREFVAAITSGGNTYYADSVKGRFTISRDNAKNTVYLQMNSLKPEDTAVYYCNADYQDEEDDYWGQGTQVTVSS | low polyreactivity
QVQLVESGGGLVQAGGSLRISCAASGITFEGYAMGWYRQAPGKESEFVAAITSTGTSTRYADSVKGRFTISRDNAKNTVYLQMNSLKPEDTAVYYCAAVARRLNTGKYYYWGQGTQVTVSS | high polyreactivity
QVQLVESGGGLVQAGGSLRLSCAASGFIFDLYAMGWSRQAPGKERELVAAITYSGGSTYYADSVKGRFTISRDNAKNTVYLQMNSLKPEDTAVYYCAAYYGGRGYWGQGTQVTVSS | low polyreactivity
QVQLVESGGGLVQAGGSLRLSCAASGRIFNYYAMGWYRQAPGKERELVAAINSGGSTYADSVKGRFTISRDNAKNTVYLQMNSLKPEDTAVYYCAKDGQLQSVRERPSGYDHWGQGTQVTVSS | low polyreactivity
QVQLVESGGGLVQAGGSLRISCAASGSTFKGYAMGWYRQSPGKERELVAAISRSGTRTYYADSVKVRFTISRDTAKNTVYLQMNSLNPEDTAVYSCNKDTGYIAHDNENGRDYWGQGTQVTVSS | low polyreactivity
QVQLVESGGGLVQAGGSLRLSCAASGLTFVPYAMGWYRQAPGKERELVAAIDSGGRTNYADSVKGRFTISRDNAKNTVYLQMNSLKPEDTAVYYCAVEWLSYYDENDYWGQGTQVTVSS | high polyreactivity
QGQLEESGGGLVQAGGSLRLSCAASGITFNDYTMGWYRQAPGKEMELVAVITKTGSRTYYADSVKGRFTISRDNAKNTVYLQMNSLKPEDTAVYYCNALYYIHYYQGYGYWGQGTQVTVSS | high polyreactivity
QVQLVESGGGLVQAGGSLRLSCAASGITPDYAMGWYRQAPGKERELVAAITWSGGRTYYADSVKGRFTISRDNAKNTVYLQMNSLKPEDTAVYYCAAEHYLGYDYWGQGTQVTVSS | low polyreactivity
QLQLQESGGGLVQAGGSLRLTCAASGYIFPTAIMRWYRQAPGTERKLVAASNPGSNTYYADSVKGRFTFSLDNAKNTVYLQMNSLTPEDAAVYSCAVSIWLDGTLDFWGQGTQVTVSS | low polyreactivity
QVQLVESGGGLVQAGGSLRLSCAASGRIFGLNAMGWYRQAPGKERELVAAIDQGDGITYYADSVKGRFTISRDNAKNTVYLQMNSLKPEDTAVYYCAAEVSYKEIYQYYWIYPAYNYWGQGTQVTVSS | high polyreactivity
QVQLVESGGGLVQAGRSLRLSCAASGSIFSTNAMGWYTQAQGKEREFVAAIDITNYEDSVKGRFTISRDNSKNTVDFQMNSVIPEDTAVYSCIADTYSVVREGDYWGQGTQVTVSS | low polyreactivity
QVQLVESGGGLLQAGGSLRLSCAASGFIFGGNAMGWYREAPGKERELVAAIRSGGSTYYADSVKVRFTISRDNAKNTVYLQMISLKPLDTAVDYCAVRLRYAYRARGNYWGQGTQVTVSS | low polyreactivity
